From patent publication US10941182 (Amgen, dated 2021) come the findings set out here.

The chains are these.
T1: human APJ receptor (human, UniProt P35414 1-380)
T1 sequence (looked up): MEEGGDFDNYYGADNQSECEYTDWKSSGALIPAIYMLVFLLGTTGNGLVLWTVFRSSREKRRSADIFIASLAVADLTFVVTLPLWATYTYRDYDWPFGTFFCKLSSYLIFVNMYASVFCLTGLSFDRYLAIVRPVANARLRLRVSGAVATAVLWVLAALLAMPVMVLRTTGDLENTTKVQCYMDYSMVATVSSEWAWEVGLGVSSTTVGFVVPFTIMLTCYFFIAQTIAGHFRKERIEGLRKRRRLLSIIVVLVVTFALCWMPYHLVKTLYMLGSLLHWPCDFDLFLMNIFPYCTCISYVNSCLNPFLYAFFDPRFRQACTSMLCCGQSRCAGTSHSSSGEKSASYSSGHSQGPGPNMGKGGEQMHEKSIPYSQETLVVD

T2: rat APJ receptor (rat, UniProt Q9JHG3 1-377)
T2 sequence (looked up): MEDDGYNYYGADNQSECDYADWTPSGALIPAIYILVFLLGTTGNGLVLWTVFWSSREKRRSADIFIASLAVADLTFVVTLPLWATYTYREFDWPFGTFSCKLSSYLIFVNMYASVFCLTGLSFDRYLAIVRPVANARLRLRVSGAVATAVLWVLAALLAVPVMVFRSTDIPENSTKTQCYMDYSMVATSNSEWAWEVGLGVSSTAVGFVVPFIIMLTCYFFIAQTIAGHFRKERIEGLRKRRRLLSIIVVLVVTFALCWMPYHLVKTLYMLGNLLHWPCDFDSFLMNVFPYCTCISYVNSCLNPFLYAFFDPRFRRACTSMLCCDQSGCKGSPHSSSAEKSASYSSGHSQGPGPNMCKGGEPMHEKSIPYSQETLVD

B1: SEQ ID NO: 561 (peptide)
peptide: XXXQRPRLSHKGPXPF
modifications: {hexanoyl}[AC4Abu][Aeea][Aeea]Q[NMehArg]P[NMeArg][aMeLeu]SHKGP[Nle]P[4-Cl-F]{COOH}
B2: SEQ ID NO: 112 (peptide)
peptide: QRPRLSHKGPXPF
modifications: {H2}[MerPr](10K mPEG acetamide)Q[hArg]P[NMeArg][aMeLeu]SHKGP[Nle]P[4-Cl-F]{COOH}
B3: SEQ ID NO: 114 (peptide)
peptide: QRPRLSHKGPXPF
modifications: {H2}[MerPr](10K mPEG acetamide)QR[aMePro][hArg][aMeLeu]SHKGP[Nle]P[4-Cl-F]{COOH}
B4: SEQ ID NO: 94 (peptide)
peptide: SDFYKRLINKAKXXRRQRPRLSHKGXFPX
modifications: {Acetyl-NH}SDFYKRLINKAK[Aeea][Aeea][hArg]rQ[hArg]Pr[NMeLeu]SHKG[Oic][pI-Phe]P[D-Bip]{COOH}

Starred links: 1 amine or outer side, 2 acyl side, 3 side chain; linkers in the order of their positions; H or OH if unused. Non-standard residues stand in square brackets, D forms with d. Primed or numbered codes have the meaning given here. *: point of attachment. AC4Abu = α-carboxy-4-aminobutyric acid, O=C(C(CCN[*:1])C(=O)[*:3])[*:2]; dBip = N[C@H](Cc1ccc(-c2ccccc2)cc1)C(=O)O; Oic = O=C(O)[C@@H]1C[C@@H]2CCCC[C@@H]2N1; Phe(4-Cl) = N[C@@H](Cc1ccc(Cl)cc1)C(=O)O; dPhe(4-Cl) = N[C@H](Cc1ccc(Cl)cc1)C(=O)O; Phe(4-I) = N[C@@H](Cc1ccc(I)cc1)C(=O)O; NMeR = CN[C@@H](CCCNC(=N)N)C(=O)O; hArg = N=C(N)NCCCC[C@H](N)C(=O)O; Cha = N[C@@H](CC1CCCCC1)C(=O)O; NMeL = CN[C@@H](CC(C)C)C(=O)O; Nle = CCCC[C@H](N)C(=O)O; Pip′ = not defined here; Hexanoyl = CCCCCC(=O)*; AEEA = NCCOCCOCC(=O)O; Aib = CC(C)(N)C(=O)O; Mpa = O=C(O)CCS

For the first assay, the target named is T1, human APJ receptor. Kind of assay: cell-based or functional assay.
With B1, the “EC50 Human APJ Receptor” value was 1.21 nM.
Same read-out and setting: to XXXQRPRLSHKGPXPF ({Dodecanoyl-NH}[AC4Abu][Aeea][Aeea]QRP[NMeArg]LSHKGP[Nle]P[4-Cl-F]{COOH}) [SEQ ID NO: 591] belongs 0.476 nM; to H-KFRRQRPRLSHKGPMP-OH [SEQ ID NO: 12], 1.42 nM; to B2, 2.32 nM.
Same read-out and setting: to QRPRLSHKGPXPF ({H2}[MerPr](10K mPEG acetamide)Q[hArg]P[NMehArg]LSHKGP[Nle]P[4-Cl-F]{COOH}) [SEQ ID NO: 113] belongs 12.1 nM; to B3, 0.848 nM.
Turning to {mPEG 10 kDa acetamide}-[Mpa][dQ][hArg]P[NMeR][Cha]SHKG[Oic][Nle]P[dPhe(4-Cl)]-OH (numbers in words are those of the source; also: N-terminus written {H2}) [SEQ ID NO: 111], the “EC50 Human APJ Receptor” value was 1100 nM.
With B4, the “EC50 Human APJ Receptor” value was determined as 1.34 nM.
As for QRPRLSHKGPXPF ({H2}[MerPr](10K mPEG acetamide)QrP[hArg][aMeLeu]SHKGP[Nle]P[4-Cl-F]{COOH}) [SEQ ID NO: 119], the “EC50 Human APJ Receptor” value amounted to 25.6 nM.
For the molecule {10K mPEG acetamide}-[Mpa]QRP[NMeR][Cha]SHKG[Oic][Nle][Aib][Phe(4-Cl)]-OH [SEQ ID NO: 120], the “EC50 Human APJ Receptor” value was 63.2 nM.
Regarding Hexanoyl-[AC4Abu][AEEA][AEEA][hArg][dR]Q[hArg]P[dR][NMeL]SHKG[Pip′][Phe(4-I)]P[dBip]-OH [SEQ ID NO: 563], the “EC50 Human APJ Receptor” value amounted to 4.3 nM.

For the next assay, the target named is T2, rat APJ receptor. The experiment in a line: cell-based or functional assay.
B1: the “EC50 Rat APJ Receptor” value came out at 5.94 nM.
For XXXQRPRLSHKGPXPF ({Dodecanoyl-NH}[AC4Abu][Aeea][Aeea]QRP[NMeArg]LSHKGP[Nle]P[4-Cl-F]{COOH}) [SEQ ID NO: 591], the “EC50 Rat APJ Receptor” value is 1.84 nM.
Same read-out and setting: to H-KFRRQRPRLSHKGPMP-OH [SEQ ID NO: 12] belongs 5.81 nM.
On the same count and under the same terms, to B2 belongs 10.4 nM; to QRPRLSHKGPXPF ({H2}[MerPr](10K mPEG acetamide)Q[hArg]P[NMehArg]LSHKGP[Nle]P[4-Cl-F]{COOH}) [SEQ ID NO: 113], 49.3 nM.
Regarding B3, the “EC50 Rat APJ Receptor” value was 3.46 nM.
Consider {mPEG 10 kDa acetamide}-[Mpa][dQ][hArg]P[NMeR][Cha]SHKG[Oic][Nle]P[dPhe(4-Cl)]-OH (numbers in words are those of the source; also: N-terminus written {H2}) [SEQ ID NO: 111], for which the “EC50 Rat APJ Receptor” value came out at 777 nM.
Consider B4, for which the “EC50 Rat APJ Receptor” value came out at 1.33 nM.
Take QRPRLSHKGPXPF ({H2}[MerPr](10K mPEG acetamide)QrP[hArg][aMeLeu]SHKGP[Nle]P[4-Cl-F]{COOH}) [SEQ ID NO: 119]: the “EC50 Rat APJ Receptor” value turned out to be 141 nM.
On to {10K mPEG acetamide}-[Mpa]QRP[NMeR][Cha]SHKG[Oic][Nle][Aib][Phe(4-Cl)]-OH [SEQ ID NO: 120], for which the “EC50 Rat APJ Receptor” value turned out to be 258 nM.
For the molecule Hexanoyl-[AC4Abu][AEEA][AEEA][hArg][dR]Q[hArg]P[dR][NMeL]SHKG[Pip′][Phe(4-I)]P[dBip]-OH [SEQ ID NO: 563], the “EC50 Rat APJ Receptor” value was determined as 12.7 nM.
